By pKd is commonly meant −log10 of the Kd, conventionally taken in molar units. Lower therefore signals a large Kd.

pKd: −log10 of the molar value.

The subject of the series is Stf76 (Sulfolobus islandicus plasmid-virus pSSVx). The series can be described thus: ITC. To be noted: EMSA: 20 mM Tris-acetate pH 8.0, 50 mM K acetate, 10 mM Mg acetate, 1 mM DTT, 5% glycerol, 1 ug salmon sperm DNA, 50 C protein pre-incubation, binding 37 C ….

For “GGAAACAGTATTAATAAAGTGTTAATCCTATTACCC (double strand) [probe A' (35 bp-site A)]”, the pKd is 7.40.

The values above are taken from paper PMC4027180.
